In US20030236197A1 (PRAECIS PHARMACEUTICALS, published 2003):
Square brackets hold non-standard residues; d marks the D form. Ends that are not written are not given here. * marks the point of attachment. dPhe(F5) = N[C@H](Cc1c(F)c(F)c(F)c(F)c1F)C(=O)O; dPhe(4-F) = N[C@H](Cc1ccc(F)cc1)C(=O)O; NHiPr = CC(C)N*

B1: PPI-970: TFA • N-isopropyl-(Gaffvl)-NH2 (peptide)
peptide: G[dA][dF][dF][dV][dL]-NH2
modifications: not fully specified (N-terminus); printed as N-isopropyl-(Gly-D-Ala-D-Phe-D-Phe-D-Val-D-Leu)-NH2; also: TFA salt
B2: PPI-1125: 2 TFA • H-lvf-NH-NH-fvl-H (peptide)
peptide: H-[dL]-[dV]-[dF]
modifications: also: dimer: C-termini of two tripeptides joined through hydrazine (-NH-NH-), 2 TFA salt

Molecular target: T1, Aβ1-40 peptide (monomeric start material of the nucleation assay)
Test: cell-based or functional assay

Which results are given for {N,N‑dimethyl}-G[dA][dF][dF][dV][dL]-NH2 (also: TFA salt) [PPI-803: TFA • N,N-dimethyl-(Gaffvl)-NH2]?
Nucleation assay Δ lag at 1.25 µM compound: < 1 ratio of lag time to control; Nucleation assay Δ lag at 2.5 µM compound: < 1 ratio of lag time to control; Nucleation assay Δ lag at 5 µM compound: < 1 ratio of lag time to control

What does the source list for H-[dL][dV][dF][dF][dA]-NHiPr (also: TFA salt) [PPI-992: TFA • H-(lvffa)-isopropylamide]?
Nucleation assay Δ lag at 1.25 µM compound: 1 ratio of lag time to control; Nucleation assay Δ lag at 2.5 µM compound: 1 ratio of lag time to control; Nucleation assay Δ lag at 5 µM compound: 3 ratio of lag time to control

Which results are given for H-[dL][dV][dF][dF][dA]-NMe2 (also: TFA salt) [PPI-993: TFA • H-(lvffa)-dimethylamide]?
Nucleation assay Δ lag at 1.25 µM compound: 1 ratio of lag time to control; Nucleation assay Δ lag at 2.5 µM compound: 1 ratio of lag time to control; Nucleation assay Δ lag at 5 µM compound: 1 ratio of lag time to control

B1 was tested. Which “Nucleation assay Δ lag at 1.25 µM compound” value did it give?
The value was 1 ratio of lag time to control.

What about the “Nucleation assay Δ lag at 2.5 µM compound” value of the same binder?
The value was > 5 ratio of lag time to control.

What about the “Nucleation assay Δ lag at 5 µM compound” value of the same binder?
The value was > 5 ratio of lag time to control.

What does the source list for {N,N‑dimethyl}-[dA][dF][dF][dV][dL]-NH2 (also: TFA salt) [PPI-913: TFA • N,N-dimethyl-(affvl)-NH2]?
Nucleation assay Δ lag at 1.25 µM compound: 1 ratio of lag time to control; Nucleation assay Δ lag at 2.5 µM compound: 1 ratio of lag time to control; Nucleation assay Δ lag at 5 µM compound: 1 ratio of lag time to control

For {N,N‑diethyl}-[dA][dF][dF][dV][dL]-NH2 (also: TFA salt) [PPI-1006: TFA • N,N-diethyl-(affvl)-NH2], which “Nucleation assay Δ lag at 1.25 µM compound” value is on record?
Its value is 1 ratio of lag time to control.

What about the “Nucleation assay Δ lag at 2.5 µM compound” value of the same binder?
Its value is 1 ratio of lag time to control.

What about the “Nucleation assay Δ lag at 5 µM compound” value of the same binder?
Its value is 1 ratio of lag time to control.

How did the “Nucleation assay Δ lag at 1.25 µM compound” value turn out when {N,N‑diethyl}-G[dA][dF][dF][dV][dL]-NH2 (also: TFA salt) [PPI-1005: TFA • N,N-diethyl-(Gaffvl)-NH2] was run?
Its value is 1 ratio of lag time to control.

What about the “Nucleation assay Δ lag at 2.5 µM compound” value of the same binder?
Its value is 3 ratio of lag time to control.

And the “Nucleation assay Δ lag at 5 µM compound” value?
The value was 3 ratio of lag time to control.

{N,N‑dimethyl}-[dL][dV][dF][dF][dL]-NH2 (also: TFA salt) [PPI-1007: TFA • N,N-dimethyl-(lvffl)-NH2] was tested. Which “Nucleation assay Δ lag at 0.3 µM compound (row marked *: measured at 3, 1 and 0.3 µM)” value did it give?
The value was 3 ratio of lag time to control.

And the “Nucleation assay Δ lag at 0.6 µM compound (row marked #: measured at 2.5, 1.25 and 0.6 µM)” value?
The value was 1.5 ratio of lag time to control.

What about the “Nucleation assay Δ lag at 1 µM compound (row marked *: measured at 3, 1 and 0.3 µM)” value of the same binder?
Its value is 4 ratio of lag time to control.

And the “Nucleation assay Δ lag at 1.25 µM compound (row marked #: measured at 2.5, 1.25 and 0.6 µM)” value?
Its value is 1.5 ratio of lag time to control.

What about the “Nucleation assay Δ lag at 2.5 µM compound (row marked #: measured at 2.5, 1.25 and 0.6 µM)” value of the same binder?
The value was 1.5 ratio of lag time to control.

And the “Nucleation assay Δ lag at 3 µM compound (row marked *: measured at 3, 1 and 0.3 µM)” value?
Its value is 4 ratio of lag time to control.

What does the source list for {N‑methyl}-G[dA][dF][dF][dV][dL]-NH2 (also: TFA salt) [PPI-968: TFA • N-methyl-(Gaffvl)-NH2]?
Nucleation assay Δ lag at 1.25 µM compound: 2 ratio of lag time to control; Nucleation assay Δ lag at 2.5 µM compound: > 5 ratio of lag time to control; Nucleation assay Δ lag at 5 µM compound: > 5 ratio of lag time to control

Molecular target: T1, Aβ1-40 peptide (monomeric start …)
Test: cell-based or functional assay
Remark: another data set of the same source

Which “Nucleation assay data (Δ lag) at 0.3 µM compound” value does the source give for H-[dL][dF][dPhe(F5)][dV][dL]-NH2 (also: TFA salt) [PPI-1320: TFA • H-(lf-[F5]f-vl)-NH2] here?
The value was 1 ratio of lag time to control.

And the “Nucleation assay data (Δ lag) at 1 µM compound” value?
The value was 3 ratio of lag time to control.

What about the “Nucleation assay data (Δ lag) at 3 µM compound” value of the same binder?
Its value is > 5 ratio of lag time to control.

Which results are given for H-[dL][dF][dPhe(4-F)][dV][dL]-NH2 (also: TFA salt) [PPI-1319: TFA • H-(lf-[p-F]f-vl)-NH2]?
Nucleation assay data (Δ lag) at 0.3 µM compound: 1 ratio of lag time to control; Nucleation assay data (Δ lag) at 1 µM compound: > 5 ratio of lag time to control; Nucleation assay data (Δ lag) at 3 µM compound: > 5 ratio of lag time to control

What does the source list for H-[dL][dF][dK][dV][dL]-NH2 (also: 2 TFA salt) [PPI-1321: 2TFA • H-(lfkvl)-NH2]?
Nucleation assay data (Δ lag) at 0.3 µM compound: < 1 ratio of lag time to control; Nucleation assay data (Δ lag) at 1 µM compound: < 1 ratio of lag time to control; Nucleation assay data (Δ lag) at 3 µM compound: < 1 ratio of lag time to control

B2 was tested. Which “Nucleation assay data (Δ lag) at 0.6 µM compound (row marked *: measured at 2.5, 1.25 and 0.6 µM)” value did it give?
Its value is 2 ratio of lag time to control.

What about the “Nucleation assay data (Δ lag) at 1.25 µM compound (row marked *: measured at 2.5, 1.25 and 0.6 µM)” value of the same binder?
The value was > 2.5 ratio of lag time to control.

And the “Nucleation assay data (Δ lag) at 2.5 µM compound (row marked *: measured at 2.5, 1.25 and 0.6 µM)” value?
Its value is > 2.5 ratio of lag time to control.

With {N‑methyl}-[dL][dV][dF][dF][dL]-NH2 (also: TFA salt) [PPI-1019: TFA • N-methyl-(lvffl)-NH2] as the binder, how does the “Nucleation assay data (Δ lag) at 0.6 µM compound (row marked *: measured at 2.5, 1.25 and 0.6 µM)” value read?
Its value is 2 ratio of lag time to control.

What about the “Nucleation assay data (Δ lag) at 1.25 µM compound (row marked *: measured at 2.5, 1.25 and 0.6 µM)” value of the same binder?
The value was > 2.5 ratio of lag time to control.

What about the “Nucleation assay data (Δ lag) at 2.5 µM compound (row marked *: measured at 2.5, 1.25 and 0.6 µM)” value of the same binder?
Its value is > 2.5 ratio of lag time to control.
